Source: the RNAGym collection of RNA variant scans (doi:10.1073/pnas.2313332121)

B1: TPR t1 (parent)
chain: GACCAAUCUGCCCUCAGAGCUCGAGAACAUCUUCGGAUGCAGAGGAGGCAGGCUUCGGUGGCGCGAUAGCGCCAACGUCCUCAACCUCCAAUGCAUCCCACCACAUGAUGAUGCCUGAAGAGCCUUGGUUUUUUG

Variants of: B1
Experiment: polymerase ribozyme fitness, log enrichment relative to wild type (log ratio); higher = more active; in vitro selection for triplet polymerase activity
Summary of the method: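 Fitness is a logarithmic measure of how a genotype enriched relative to the wild type, with replicate averages weighted by inverse variance. The logarithm uses base 2, and enrichment came from Illumina sequencing of input and output libraries. Those libraries were PCR-built, transcribed mutants of each subunit of a heterodimeric triplet polymerase ribozyme, passed through one triplicate in vitro selection round that included frozen incubation at −7 °C, gel excision of extended constructs and streptavidin-bead capture. Genotypes were kept only if they had ≥10 input reads and ≥1 read per output.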

Variant | polymerase ribozyme fitness (log ratio)
C4U G58A C124U | 0.263
U21A A74C C98A C114G U133G | -7.51
U9A | 0.517
C13G G36U C101U U112C | -1.75
A46U C49A | -0.332
U7C A27C | -2.46
G58A C82U G93U C94U U96C C123U | -3.17
A24G G39A C70U A121G | -0.648
U112A A119C | -1.25
C13G A50U U87C | -3.31
C12U G77C U81G | -1.21
A5C C20A A37G A84U A90C U109G | -4.05
C8A G61A C115U | -0.118
C13U A41G G48A G57U U132C | -1.47
A43G A50G G60A | -4.16
G44U G45C C62U | -3.45
G25A U96A | -5.41
C82U G128C | -2.07
C3U C8A C20U C53U G58A G77A A90G C101U | -3.06
C34U G58A C99U | -4.17
C11G G17A C72U C101U | -2.99
U59G C85U U87A U106A | -0.914
A37U U133G | -1.2
A5G A24G A29C G36C G61A C70U G113A | -5.67

Variant | polymerase ribozyme fitness (log ratio)
A16U G45C C53G A90G G113A A121C | -4.47
G36A A46C C104U U116A | -3.8
C89A U96A C115A | -2.16
C22G C56U C88U A91C | -4.75
A29G C97A U112C | -4.92
A27U G44C C72U C104U | -4.18
C28U A105C | -4.77
C72U C80U | -1.08
U7A C8A C40U C79G C102U G113C U129G U130A | -7.42
C40U A43G U130A | -3.26
U54G U55G G60C C85U | -6.29
G63C C89A U116G | -4.71
A5U A6C A26G G44A U54C A84C C94U | -4.49
C13G G19U G71C U112C | -4.61
U81C G93C | -1.57
U9A G93A C115U | -1.19
C40A A41U | -2.43
A6U A37C | -0.207
G61A U129G | -1.24
C15A A18U C53A U112C G127A | -5.64
C49G G63A U87A | -2.53
A6U A50U | -0.776
C11U A26U G47U | -3.55
G35A C99U U112A | -3.32

Variant | polymerase ribozyme fitness (log ratio)
C13U U21C G36C A50G C56A | -1.18
G47U G71C C104A | -4.32
C70U C82G U106C | -1.36
A5G G69A | -2.1
C12G C115A | -0.408
C20U G52C U78A C102U C124U | -2.94
G60A G128C | -2.6
C13U C49U C79A C97G U109A | -7.98
A27U G61A U87G | -2.42
C49G C72G G117A U125A | -4.73
A16G G77A A111G G113A A118G | -3.63
A29U G45U | -3.1
G45A C73U G93C | -1.34
C40A C114A G135A | -3.46
A6C G23A C98A C115G | -7.8
C56A C124A | 1.04
C40U A41G G44A U59G G60U U112A | 0.462
A18U C70U | -3.33
A46C G77U A100C | -2.17
C11U G110A | -1.63
U9C C11U | 0.404
C11U A90G C97G U129C | -5.59
C40A G52A G58A C62U A119U U126A | -4
U9A G48C C72U U78C C86A C101A C114U C124U | -3.88

Variant | polymerase ribozyme fitness (log ratio)
A43U C82G A119G C123U C124A | -0.662
A26C U54G A103C A105U U112C | -6.86
C20G C86A | -4.53
U38G A83C | -1.25
C89A C102G | -6.86
C49U C85G | -2.2
C11G A18U C40U C82U C99A U109G | -5.71
A103G A118G C124G | -5.79
G35A G120A | -2.08
C8G C12G G17C C82A C102U C104A | -5.44
C62U C115G | -2.51
C3A G45U G61A C88U A90C G113A | -3.92
G36A G61U A103C A118U | -6.19
A37U G52U C62A | -2.78
C56U G63C C94U | -5.48
G47U G63C | -2.32
C11G C76U U78A | 0.137
G69A G117U | -5.17
G60U C101U G120A | 0.583
C79U G128C | -2.48
A111U A121U U129A G135C | -2.04
C8U A18C G48C A95G | -2.07
C73G A105C | -3.81
G42U G60A U87A G113A | -3.78

Variant | polymerase ribozyme fitness (log ratio)
C124U | 1.54
C3G A27U G52A C72U U129A | -4.63
U55G C72U | -0.317
G45C G51A | -3.29
C11G G19C G60A C123A U129C | -2.66
G77U U109A U116G | -7.07
C22A A26C A27U C86A U112C | -6.59
C20G C88U C114G U130C U132A | -5.66
C11U G63U A84U C89U | -2.9
A50U C62G | -3.56
C8U C40U G47A | -1.72
U9C A26G C72G C79U | -0.65
C15G G39U C73G U112A G122U | -2.91
C80U C82U U96A | -1.82
C89A C123A | -1.82
C12G G135U | -0.927
C79A A84G | -3.26
A50C G120A | 0.456
C56G G110U G117A | -4.5
C34A U59A C124A | -0.848
C34U C73U | -3.35
A5G C53A U59A G77U C94U | -0.908
A46C A50G | -0.277
U9G A84C C98A C123A | -4.03

Variant | polymerase ribozyme fitness (log ratio)
A18G G113U G128U U132A | -5.64
C11A C82A | -2.13
C62U C79U | -0.282
G63C G93A U112G | -0.619
G10U U32C C56A C72A | -1.43
G60C C94U | -0.143
U32C G47A G51A | -4.87
C8A U14C G39U C102G G117A | -6.22
C40G G48C G93C | 0.0171
G45U G77C | -1.17
A18U U21A G51C C53G C56A G57C C79U C115U U130G U131A | -5.86
A2C U21G C72A G77U | -4.23
G52C C94A | -0.653
G42A C73A C89G | -2.01
G36A C73U G127C | -2.76
G10U C22A C72U U92G A105U A118G | -7.38
C53U C72G C79A | -1.72
A83C G110C G120C | -5.9
U7C G61C | -1.87
U30C U54A | -2.81
C15A C22U C62G A83U C98A C123A U125A | -6.9
U92G G120C | -1.74
A5U A46C C73A C98U | -1.57
G17U C40G C89G | -6.24

Variant | polymerase ribozyme fitness (log ratio)
G42U U109G | -5.53
C86U U112C | 0.942
C11A G58C U59G U81A | -2.19
A6U A46C C49G C82G C89U | -2.2
G35C C115U A118U | -7.09
A50G C73A C82U | -0.0319
C94A U125A | -0.423
A43C C72A G122A | -3.17
U78C G120C | 0.45
A2C C4A U7C G44A C56G C94U | -1.93
U21C G63A C82A C124G U133G | -0.991
A18G G69U | -1.47
C40U C56G A84C C88A U109A | -7.02
A27U C97U | -3.07
C8G C34G C89A U96G A100U | -7.34
G48C G57U G69U U92C | -1.31
G19A G61A | -2.53
C53A G61U C72U U87C G127A | -1.15
C4A G10C C98U G117A A121U | -4.42
G48U C98U | -1.96
G93A C124A | 0.841
C80U A84U G135C | -0.488
A29G U126A | -2.42
